Data on two molecules can be found in patent publication US6355472B2, “Method for producing nucleoside-5′-phosphate ester” (Ajinomoto Co., Inc., priority 1996, dated 2002).

Data set [1] is described as follows: Properties of the purified acid phosphatase. In kind it is biochemical. The following applies: for Temperature stability (stable up to): treatment at pH 7.0 for 30 minutes. The method, then: The transphosphorylation activity was measured under the following condition using inosine as the substrate. The reaction was performed at pH 5.0 at 30° C. for 10 minutes in a reaction solution (1 ml) containing 40 μmol/ml of inosine, 100 μmol/ml of sodium pyrophosphate, 100 μmol/ml of sodium acetate buffer (pH 5.0), and an enzyme. The reaction was stopped by adding 200 μl of 2 N hydrochloric acid. After that, precipitates were removed by centrifugation. Then, 5′-inosinic acid produced by the transphosphorylation reaction was quantitatively measured. The amount of enzyme to produce 1 μmol of 5′-inosinic acid per 1 minute under this standard reaction condition was defined as 1 unit.
The phosphomonoesterase activity was measured under the following condition using 5′-inosinic acid as a substrate. The reaction was performed at 30° C. for 10 minutes in a reaction solution (1 ml) containing 10 μmol/ml of 5′-inosinic acid, 100 μmol/ml of MES/NaOH buffer (pH 6.0), and an enzyme. The reaction was stopped by adding 200 μl of 2 N hydrochloric acid. After that, precipitates were removed by centrifugation. Then, inosine produced by the hydrolytic reaction was quantitatively measured. An amount of enzyme to produce 1 μmol of inosine per 1 minute under this standard reaction condition was defined as 1 unit.

Data set [2] can be described thus: 5′-inosinic acid production by purified enzyme sample at various pH. Format: biochemical. The note with it: enzyme 50 units/dl, pH 4.0, 30° C., 3 hours. The procedure:
Sodium pyrophosphate (10 g/dl) and inosine (2 g/dl) were dissolved in sodium acetate buffers each having pH of 5.5, 5.0, 4.5, 4.0, and 3.5, to which the enzyme sample described above was added so that a concentration of 50 units/dl was obtained. The reaction mixture was incubated at 30° C. for 6 hours while maintaining each pH, and the amount of produced 5′-inosinic acid was measured along with passage of time. Produced inosinic acid contained only 5′-inosinic acid. Production of 2′-inosinic acid and 3′-inosinic acid by-products was not observed at all. The velocity of 5′-inosinic acid production was maximum at pH 5.0. However, the maximum accumulated amount of 5′-inosinic acid was higher at lower pH. The reaction condition at pH 4.0 was most efficient for production of 5′-inosinic acid, in which 5′-inosinic acid was produced and accumulated in an amount of 2.60 g/dl by performing the reaction for 3 hours.
Sodium pyrophosphate (15 g/dl) and inosine (3 g/dl) were dissolved in sodium acetate buffers each having pH of 5.5, 5.0, 4.5, 4.0, and 3.5, to which the enzyme sample described above was added so that a concentration of 50 units/dl was obtained. The reaction mixture was incubated at 30° C. for 6 hours while maintaining each pH, and the amount of produced 5′-inosinic acid was measured along with passage of time. Produced inosinic acid contained only 5′-inosinic acid. […]

[3] abbreviates: phosphate ester hydrolytic reaction.

B1: Acid Phosphatase Derived from Morganella morganii: enzyme purified from cell-free extract of Morganella morganii NCIMB 10466 (SEQ ID NO: 4) (protein)
chain: AIPAGNDATTKPDLYYLKNEQAIDSLKLLPPPPEVGSIQFLNDQAMYEKGRMLRNTERGKQAQADADLAAGGVATAFSGAFGYPITEKDSPELYKLLTNMIEDAGDLATRSAKEHYMRIRPFAFYGTETCNTKDQKKLSTNGSYPSGHTSIGWATALVLAEVNPANQDAILERGYQLGQSRVICGYHWQSDVDAARIVGSAAVATLHSDPAFQAQLAKAKQEFAQKSQK
B1: in data set [1], the Optimum temperature entry was “about 35 °C”, the “phosphate ester hydrolytic activity (phosphomonoesterase activity) higher than the transphosphorylation activity” value was “not less than 20 times” and the “Temperature stability (stable up to)” value was “up to 30 °C”. In addition, the “Optimum pH” value in data set [1] (setting [3]) is 6.5. In data set [1] (transphosphorylation reaction), the “Optimum pH” value was found to be 5.2. Besides, in data set [2] (sodium pyrophosphate 10 g/dl, inosine 2 g/dl), the “5′-inosinic acid produced and accumulated” value was 2.60 g/dL.

B2: Acid Phosphatase Derived from Escherichia blattae: enzyme purified from cell-free extract of Escherichia blattae JCM 1650 (SEQ ID NO: 8) (protein)
chain: LALVATGNDTTTKPDLYYLKNSEAINSLALLPPPPAVGSIAFLNDQAMYEQGRLLRNTERGKLAAEDANLSSGGVANAFSGAFGSPITEKDAPALHKLLTNMIEDAGDLATRSAKDHYMRIRPFAFYGVSTCNTTEQDKLSKNGSYPSGHTSIGWATALVLAEINPQRQNEILKRGYELGQSRVICGYHWQSDVDAARVVGSAVVATLHTNPAFQQQLQKAKAEFAQHQKK
For B2, in data set [1], the Optimum temperature entry is “about 35 °C”, the “phosphate ester hydrolytic activity (phosphomonoesterase activity) higher than the transphosphorylation activity” value was “not less than 30 times” and the “Temperature stability (stable up to)” value was “up to 40 °C”. In addition, the “Optimum pH” value in data set [1] (setting [3]) is recorded as 6.5. For the same molecule, the “Optimum pH” value in data set [1] (transphosphorylation reaction) came out at 5.2. Moreover, the “5′-inosinic acid produced and accumulated” value in data set [2] (sodium pyrophosphate 15 g/dl, inosine 3 g/dl) came to 1.56 g/dL.
